From paper PMC3681702
Where two headings read alike, the source gives them in different places. Values belong to the substance of their own block, whether it stands above or below them.

Assays:
[1] = biological target: p75 G247C/Δ250 mutant tagged with mEGFP (human); assay: non-reducing SDS-PAGE of immunoprecipitated protein
[2] = biological target: p75 G247C mutant tagged with mEGFP (human) (UniProt P08138); assay: as above
[3] = biological target: p75 C257A/G266I mutant tagged with mEGFP (human) (UniProt P08138); assay: as above
[4] = biological target: wild-type neurotrophin receptor p75 tagged with mEGFP (p75-EGFP) (human) (UniProt P08138); assay: number and brightness
[5] = biological target: wild-type neurotrophin receptor p75 tagged with mEGFP (p75-EGFP) (human) (UniProt P08138); assay: photon-counting histogram
[6] = biological target: wild-type neurotrophin receptor p75 tagged with mEGFP (p75-EGFP) (human) (UniProt P08138); assay: non-reducing SDS-PAGE of immunoprecipitated protein
[7] = biological target: wild-type neurotrophin receptor p75 tagged with mEGFP (p75-EGFP) (human) (UniProt P08138); assay: as above; remark: listed apart in the source
[8] = biological target: p75 Δ193/C257A/G266I mutant tagged with mEGFP (human); assay: number and brightness

Substance: p75 G247C/Δ250 mutant tagged with mEGFP (receptor)
percent recovered as dimer [1]: 56%

Substance: p75 C257A/G266I mutant tagged with mEGFP (from UniProt P08138 29-427) (receptor)
percent recovered as dimer [3]: 0.8%

Substance: wild-type neurotrophin receptor p75 tagged with mEGFP (p75-EGFP) (from UniProt P08138 29-427)
average brightness normalised to EGFP, center of the TGN [4]: 6.9 x EGFP
average brightness normalised to EGFP, periphery of the TGN [4]: 10.4 x EGFP
stoichiometry N (molecules per oligomer) [4]: 8.8
median brightness normalised to EGFP [5]: 1.71 x EGFP
stoichiometry N [5]: 3
stoichiometry N (EGFP molecules per complex) [5]: 1 to 5
percent recovered as dimer [6]: 6.9%
percent recovered as dimer [7]: 5.8%

Now from value to substance:

percent recovered as dimer [2]: 29%
Substance: p75 G247C mutant tagged with mEGFP (from UniProt P08138 29-427) (receptor)

stoichiometry N (molecules per oligomer) [8]: 2.9
Substance: p75 Δ193/C257A/G266I mutant tagged with mEGFP (receptor)
